Assay results: patent US20170174733A1 (Genentech, published 2017)
Changes are numbered by the printed parent chain. Numbers in names are those of the source.

T1: VEGF109 (UniProt P15692 214-315, biotinylated where loaded on streptavidin tips)
T1 construct: range 8-109; also called VEGF8-109; biotinylated VEGF109
T1 sequence: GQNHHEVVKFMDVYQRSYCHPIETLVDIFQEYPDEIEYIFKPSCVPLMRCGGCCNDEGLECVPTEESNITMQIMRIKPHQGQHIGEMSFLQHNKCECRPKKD

B1: chagasin VEGF variant L4X8-9 (designed binder)
chain: MSHKVTKAHNGATLTVAVGELVEIQLPSNYFYDGFAWYFEGGTKESPNESMFTVENKYFPSGSYMSYSGAGGTEHFHVTVKAAGTHAVNLTYMAPWLGPSRDLERFTVYLKAN
B2: phage-displayed chagasin VEGF variant 5-44-D8 (designed binder)
chain: MADPNRFRGKDLGSLEMSHKVTKAHNGATLTVAVGELVEIQLPSNLRSMGFAWYFEGGTKESPNESMFTVENKYFPAGPSAVPLGAGGTEHFHVTVKAAGTHAVNLTYMAPWRGPANVIERFTVYLKANGGSGGSGGS
notes: not shown: phage coat protein g3 (p3)
B3: phage-displayed chagasin VEGF variant 4-66-F6 (designed binder)
chain: MADPNRFRGKDLGSLEMSHKVTKAHNGATLTVAVGELVEIQLPSNYFYDGFAWYFEGGTKESPNESMFTVENKYFPNDPGSRLSGAGGTEHFHVTVKAAGTHAVNLTYMAPWLGPSRVLERFTVYLKANGGSGGSGGS
notes: as for B2
B4: phage-displayed chagasin VEGF variant 2-40-D4 (designed binder)
chain: MADPNRFRGKDLGSLEMSHKVTKAHNGATLTVAVGELVEIQLPSNLQNAGFAWYFEGGTKESPNESMFTVENKYFPLSLYASETGAGGTEHFHVTVKAAGTHAVNLTYMNPNWGPDYWIERFTVYLKANGGSGGSGGS
notes: as for B2
B5: phage-displayed chagasin VEGF variant 1-90-H6 (designed binder)
chain: MADPNRFRGKDLGSLEMSHKVTKAHNGATLTVAVGELVEIQLPSNLQDSGFAWYFEGGTKESPNESMFTVENKYFPSGTTGKSNGAGGTEHFHVTVKAAGTHAVNLTYMFKSRGLMVPLERFTVYLKANGGSGGSGGS
notes: as for B2
B6: phage-displayed chagasin VEGF variant 3-65-F5 (designed binder)
chain: MADPNRFRGKDLGSLEMSHKVTKAHNGATLTVAVGELVEIQLPSNYRDSGFAWYFEGGTKESPNESMFTVENKYFPVRAGQANEGAGGTEHFHVTVKAAGTHAVNLTYMSPVLGPRFWLERFTVYLKANGGSGGSGGS
notes: as for B2
B7: chagasin VEGF binder Variant 66-L2-K (designed binder)
chain: MSHKVTKAHNGATLTVAVGELVEIQLPSNYYKDGFAWYFEGGTKESPNESMFTVENKYFPHYYNLGGRYTGAGGTEHFHVTVKAAGTHAVNLTYMGPWLGPSRVLERFTVYLKAN
B8: chagasin VEGF binder Variant 66-L4-Q (designed binder)
chain: B7 chain with K32Y, Y63Q
B9: chagasin VEGF binder Variant 66-L4-S (designed binder)
chain: B7 chain with K32Y, Y63S, A72G, G73A
B10: chagasin VEGF binder Variant 66-L4-T (designed binder)
chain: B7 chain with K32Y, Y63T, A72G, G73A
B11: chagasin VEGF variant E4B-5 (designed binder)
chain: B1 chain with D33E, S61N, S63P, Y64G, M65L, S66G, Y67V, S68Y, L97Q, D102E
B12: chagasin VEGF variant E4B-7 (designed binder)
chain: MSHKVTKAHNGATLTVAVGELVEIQLPSNYYYDGFAWYFEGGTKESPNESMFTVENKYFPNVNGSHAWGAGGTEHFHVTVKAAGTHAVNLTYMAPWSGPSRFLERFTVYLKAN
B13: chagasin VEGF variant E4B-10 (designed binder)
chain: B12 chain with Y31F, N61D, V62D, N63P, H66G, A67L, F102Y
B14: chagasin VEGF variant L4X6-3 (designed binder)
chain: MSHKVTKAHNGATLTVAVGELVEIQLPSNYFNDGFAWYFEGGTKESPNESMFTVENKYFPGSSYWGGAGGTEHFHVTVKAAGTHAVNLTYMAPWAGPSRVLERFTVYLKAN

target: T2, human VEGF (human, UniProt P15692 27-191); experiment: cell-based or functional assay
T2 sequence (P15692 other isoform, or with tags, fused parts or gaps limits assumed): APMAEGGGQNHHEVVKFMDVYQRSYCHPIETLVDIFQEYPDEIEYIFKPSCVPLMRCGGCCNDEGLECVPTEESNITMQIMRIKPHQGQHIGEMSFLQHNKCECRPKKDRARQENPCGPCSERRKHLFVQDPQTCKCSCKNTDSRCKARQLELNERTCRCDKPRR

Binder | IC50, inhibition of VEGF-dependent signaling through the KDR receptor on cells [nM] | fold improvement of IC50 over the parental chagasin variant 4 [fold]
B1 | 301 | 2

target: T1, VEGF109; experiment: phage ELISA, 5 ug/ml VEGF coated on 384-well Maxisorp, OD 450 nm

Binder | EC50 (read off the curve) [OD 268 nM]
B2 | ~0.003
B3 | ~0.007
B4 | ~0.003
B5 | ~0.006
B6 | ~0.004

target: T1, VEGF109; experiment: BLI (Octet) on VEGF109
Procedure: Binding affinities of chagasin variants for the targets LRP6 and VEGF109 were measured using the OctetRED384 (ForteBio). All washes, dilutions and measurements were performed in PBS-based kinetics buffer (ForteBio) with the plate shaking at 1000 rpm. Streptavidin biosensors (SA tips, ForteBio) were equilibrated in kinetics buffer for 5 min and then loaded with either biotinylated LRP6-E1E2 or biotinylated VEGF109 (20 μg/ml) to a density of 2 nm signal difference, followed by a 3 min washing step. […] Dissociation of the chagasin variant-target complex was measured in wells containing kinetics buffer alone for up to 30 min. Sensorgrams with ligand-loaded SA tips going through wells containing only buffer in both association and dissociation measurement were used as reference for background subtraction. Kd, kₐ and kd were determined using the Octet evaluation software v7.0.1.3. using a 1:1 binding model with global fitting. Alternatively, AMC-biosensors (Fortebio) were loaded with StrepMAB-Immo (IBA GmbH) to saturation and subsequently used to capture Strep-tag II containing chagasin variants to saturation. After 5 min of washing in kinetics buffer, binding kinetics to unlabeled LRP6-E1E2 fragment was determined essentially as described above.

Binder | Kd [nM]
B7 | 61
B8 | 80
B9 | 50
B10 | 51

target: T2, human VEGF; experiment: cell-based or functional assay; remark: another data set of the same source

Binder | Inhibitory Activity (IC50, nM) against hVEGF in cell-based assays [nM]
B11 | 800
B12 | 550
B13 | 610
B1 | 300
B14 | 710
